Reference: patent publication US7056886B2, “GLP-2 formulations” (NPS Allelix, Corp., priority 1999, dated 2006)

Key:
[1] = Temperature profile / phase transition of h[Gly2]GLP-2; assay type: physicochemical
Method: It has also been discovered that Tween 80®, salt, and arginine are not suitable materials for producing a stable formulation for h[Gly2]GLP-2.
(§1) Based on pH solubility profiles, it was determined that a phosphate buffer provides optimal buffering capacity for GLP-2 peptides. […] L-histidine acts as a stabilizing amino acid that increases the length of time that the GLP-2 peptide remains intact prior to degradation.

[2] = pH solubility profile of h[Gly2]GLP-2 (precipitation); assay type: physicochemical
Method: as §1

h[Gly2]GLP-2
phase transition temperature ([1]; depending upon the salt concentration): 40-55 °C
behaviour in the presence of salt ([1]; in the presence of salt): becomes hydrophobic in the presence of salt
heat-induced and salt-dependent transition temperature ([1]; temperature profiles): about 40 °C
pH at which the analog precipitated [2]: less than 5.5
